Experimental data: publication PMC9945983 (Proceedings of the National Academy of Sciences of the …, 2023)
Blank lines part the entries; values can stand above or below the binder they belong to.

Key:
[1] = target: T1, PARC6^685–819 as part of the PARC6^685–819–PDV1^263–272 fusion protein (Arabidopsis thaliana, UniProt Q8VY16 685-819); assay: crystal structure
T1 sequence (looked up): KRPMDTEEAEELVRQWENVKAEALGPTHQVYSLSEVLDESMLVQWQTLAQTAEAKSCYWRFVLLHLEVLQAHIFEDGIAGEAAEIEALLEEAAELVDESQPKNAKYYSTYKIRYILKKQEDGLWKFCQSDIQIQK

SEC-MALS = target: the molecule itself; assay: SEC-MALS

binding result [1]: binds
Binder: DHLDVMMARG (peptide, UniProt Q9FK13 263-272, looked up) [PDV1C (PDV1^263–272) as part of the PARC6^685–819–PDV1^263–272 fusion protein]

B1: PARC6^640–819 (PARC6C), C-terminal domain of PARALOG OF ARC6 (domain or fragment, Arabidopsis thaliana, UniProt Q8VY16 640-819, looked up)
chain: NGIVGNIKVLIDMLKMHCGEHPDALYLKSSGQSATSLSHSASELHKRPMDTEEAEELVRQWENVKAEALGPTHQVYSLSEVLDESMLVQWQTLAQTAEAKSCYWRFVLLHLEVLQAHIFEDGIAGEAAEIEALLEEAAELVDESQPKNAKYYSTYKIRYILKKQEDGLWKFCQSDIQIQK
modifications: intramolecular disulfide bond C657-C741 under oxidized conditions
stoichiometry N (SEC-MALS): 2
